Positions count from the first letter of the chain named. Each block holds one binder with its values, some of them ahead of it.
How the values were obtained:
[1] = target: T1, cynomolgus Nectin-4 extracellular domain (ECD) with C-terminal His6 (cynomolgus, UniProt Q96NY8 32-349 (human entry)); assay: SPR (Biacore 8K), DRUG B captured on Protein A chip, nectin-4-ECD as analyte, single-cycle kinetics, 1:1 fit, 25° C; 25° C., cynomolgus nectin-4-ECD
T1 construct: also called Cyno Nectin-4-ECD; cynomolgus nectin-4-ECD
T1 chain: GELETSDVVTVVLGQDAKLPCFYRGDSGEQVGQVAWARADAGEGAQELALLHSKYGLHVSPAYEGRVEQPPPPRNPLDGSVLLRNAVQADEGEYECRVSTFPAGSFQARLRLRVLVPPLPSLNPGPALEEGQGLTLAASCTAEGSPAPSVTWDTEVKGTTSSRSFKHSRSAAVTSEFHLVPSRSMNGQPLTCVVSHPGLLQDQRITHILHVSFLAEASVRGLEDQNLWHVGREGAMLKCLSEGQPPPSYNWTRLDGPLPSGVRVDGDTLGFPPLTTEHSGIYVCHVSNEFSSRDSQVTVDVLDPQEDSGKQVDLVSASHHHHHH

[2] = target: T2, hFcγIIa-R131 (human, UniProt P12318 36-218); assay: SPR (Biacore 8K), 25° C, antibody captured on nectin-4-coated chip, receptor ECD as analyte, steady-state analysis
T2 construct: extracellular domain; Position 131 is the customary mature-protein numbering, not the precursor numbering of the database entry; also called hFcγRIIa (CD32a) R131
T2 sequence (looked up): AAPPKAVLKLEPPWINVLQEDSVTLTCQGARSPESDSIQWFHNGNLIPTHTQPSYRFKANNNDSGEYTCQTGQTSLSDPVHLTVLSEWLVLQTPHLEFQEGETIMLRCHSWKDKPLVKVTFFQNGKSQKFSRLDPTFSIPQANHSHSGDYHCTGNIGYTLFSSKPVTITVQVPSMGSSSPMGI
From the text: (§1) The data was processed and analyzed with Biacore 8K Evaluation Software Version 3.0.12.15655 (Cytiva, Global Life Sciences Solutions USA LLC, Marlborough, MA). Reference responses from flow cell 1 were subtracted from the active responses from flow cell 2 to obtain the subtracted data (2-1). The responses from the nearest buffer blank injection were then subtracted from the reference subtracted data (2-1) to yield double-referenced data. For hFcγRI, these double-reference data were fit to a simple 1:1 Langmuir binding model with mass transport to determine the apparent association (ka) and dissociation rate constants (kd). The apparent equilibrium dissociation constant or affinity constant was then calculated based on their ratio as (KD=kd/ka). Binding affinity KD values for all the other hFcγR interactions (hFcγIIa-H131, hFcγIIa-R131, hFcγIIIa, and FcγIIIaV158F) were analyzed using a “steady state” (or “equilibrium binding”) method due to their fast on rates and fast off rates.

[3] = target: T3, hFcγIIa-H131 (human, UniProt P12318 34-217); assay: as above
T3 construct: extracellular domain; H at position 131 of the H/R131 polymorphism; also called hFcγRIIa (CD32a) H131
T3 sequence (looked up): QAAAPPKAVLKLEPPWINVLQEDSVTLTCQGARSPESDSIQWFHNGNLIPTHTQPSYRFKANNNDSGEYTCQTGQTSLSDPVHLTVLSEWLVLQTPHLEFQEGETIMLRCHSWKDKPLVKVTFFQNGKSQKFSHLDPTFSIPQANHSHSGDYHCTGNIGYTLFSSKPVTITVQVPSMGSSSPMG
From the text: as §1

[4] = target: T4, human Nectin-4 extracellular domain (ECD) with C-terminal His6 (human, UniProt Q96NY8 32-349); assay: SPR (Biacore 8K), DRUG B captured on Protein A chip, nectin-4-ECD as analyte, single-cycle kinetics, 1:1 fit, 37° C; 37° C., human nectin-4-ECD
T4 construct: also called human Nectin-4-ECD; human nectin-4 ECD
T4 sequence: T1 chain with A39V, V230I
Description: (§2) Kinetic injection method used was “single cycle kinetics” (also known as “kinetic titration”) (Karlsson et al. (2006) Analytical Biochemistry. 349(1):136-147).
(§3) The interactions of DRUG B, i.e., an anti-Nectin-4 monoclonal antibody, with the extracellular domain (ECD) of human nectin-4 were analyzed by flowing nectin-4-ECD over DRUG B captured (200-400 RUs) on Biacore Series S Sensor Chip Protein A. DRUG B, at ˜1 μg/mL concentration was captured in flow cell 2 of each channel at flow rate 10 μL/min for 60 seconds (s) contact time while buffer was used for Flow cell 1 respectively. The human nectin-4-ECD analytes were prepared as a 5-membered 3-fold dilution series with top nominal concentration of 300 nM, and each analyte series was injected in order of ascending concentration using a single-cycle kinetics method. Association and dissociation times were monitored for 120s and 1800s, respectively, at 30 μL/min flow rate. The surfaces were regenerated with 75 mM phosphoric acid at pH 1.6 using two pulses of 15s at 30 μL/min flow rate.
(§4) To analyze the data, the following processing steps were applied. Reference responses from flow cell 1 (reference surface) were subtracted from the active responses from flow cell 2 (reaction surface) to obtain the subtracted data (2-1). […]

[5] = target: T4, human Nectin-4 extracellular domain …; assay: SPR (Biacore 8K), DRUG B captured on Protein A chip, nectin-4-ECD as analyte, single-cycle kinetics, 1:1 fit; temperature dropped in the text, 25° C by context; 25° C. (by context; temperature dropped in the text), human nectin-4-ECD
Description: as §2, §3, §4

[6] = target: T5, hFcRn ECD protein (human, UniProt P55899 24-297; P61769 21-119); assay: SPR (Biacore 8K), 25° C, PBS pH 5.8, antibody captured on nectin-4-coated chip, hFcRn ECD as analyte, steady-state analysis
T5 construct: extracellular domain; also called human FcRn; neonatal Fc receptor
Description: (§5) All experiments were performed at 25° C. using a Biacore 8K equipped with S-type sensor chips and the kinetics data analyses were done using the Biacore Insight Evaluation Software. The running buffer was PBS pH 5.8 with 0.01% Tween-20 for hFcRn interactions and the running buffer for capture was HBS-EP+. Analyte hFcRn ECD protein was used at its nominal concentrations. A “single cycle kinetics” injection mode was used.
(§6) The interactions of DRUG B and DRUG C with hFcRn were analyzed by flowing the hFcRn ECD protein over DRUG B or DRUG C captured on a nectin-4-coated CMS chip. Up to 2400 RU of human nectin-4 ECD were immobilized on both flow cells (1 and 2) of a CMS chip using amine chemistry following Cytiva amine coupling kit instructions. DRUG B or DRUG C were captured on flow cell 2 of each channel for 120 seconds at 10 μL/min at […] in HBS-EP+(100-200 RUs) in a surface preparation method. The hFcRn run was done in PBS pH 5.8 with 0.01% Tween-20. […] Association and dissociation times were monitored for 120s and 600s, respectively. […]
(§7) The data was processed and analyzed with Biacore 8K Evaluation Software Version 3.0.12.15655 (Cytiva, Global Life Sciences Solutions USA LLC, Marlborough, MA). […] Binding affinity KD values were analyzed using a “steady state” (or “equilibrium binding”) method due to their fast on rates and fast off rates.

[7] = target: T6, hFcγIa (human, UniProt P12314 16-292); assay: SPR (Biacore 8K), 25° C, antibody captured on nectin-4-coated chip, receptor ECD as analyte, single-cycle kinetics, 1:1 fit
T6 construct: extracellular domain; also called hFcγRI; CD64
From the text: as §1

[8] = target: T1, cynomolgus Nectin-4 extracellular …; assay: SPR (Biacore 8K), DRUG B captured on Protein A chip, nectin-4-ECD as analyte, single-cycle kinetics, 1:1 fit, 37° C; 37° C., cynomolgus nectin-4-ECD
[9] = target: T6, hFcγIa; assay: SPR (Biacore 8K), 25° C, ADC captured on nectin-4-coated chip, receptor ECD as analyte, single-cycle kinetics, 1:1 fit
From the text: as §1

[10] = target: T5, hFcRn ECD protein; assay: SPR (Biacore 8K), 25° C, PBS pH 5.8, ADC captured on nectin-4-coated chip, hFcRn ECD as analyte, steady-state analysis
Description: as §5, §6, §7

[11] = target: T4, human Nectin-4 extracellular domain …; assay: SPR, capture on chip with immobilized human nectin-4 ECD (FcγR runs)
[12] = target: T2, hFcγIIa-R131; assay: SPR (Biacore 8K), 25° C, ADC captured on nectin-4-coated chip, receptor ECD as analyte, steady-state analysis
From the text: as §1

[13] = target: T3, hFcγIIa-H131; assay: as above
From the text: as §1

T6 sequence (P12314 16-292): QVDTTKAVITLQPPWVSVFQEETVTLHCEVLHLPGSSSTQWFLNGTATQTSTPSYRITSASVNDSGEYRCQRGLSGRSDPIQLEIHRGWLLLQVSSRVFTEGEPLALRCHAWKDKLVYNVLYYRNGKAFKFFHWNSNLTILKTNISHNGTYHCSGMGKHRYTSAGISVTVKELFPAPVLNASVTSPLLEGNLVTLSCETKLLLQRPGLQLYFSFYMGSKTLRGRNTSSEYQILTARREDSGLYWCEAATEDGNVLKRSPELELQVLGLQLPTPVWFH

- Kd [1]: ~22.6 nM
- Kd [2]: 783 nM
- Kd [3]: 772 nM
- Kd [4]: ~36.3 nM
- Kd [5]: ~14.5 nM
- Kd [6]: 767 nM
- Kd [7]: 0.056 nM
- Kd [8]: ~50.7 nM
B1: DRUG B (enfortumab similar antibody that specifically binds human nectin-4) (antibody, human IgG1, kappa)
heavy: not shown
light: DIQMTQSPSSVSASVGDRVTITCRASQGISGWLAWYQQKPGKAPKFLIYAASTLQSGVPSRFSGSGSGTDFTLTISSLQPEDFATYYCQQANSFPPTFGGGTKVEIKRTVAAPSVFIFPPSDEQLKSGTASVVCLLNNFYPREAKVQWKVDNALQSGNSQESVTEQDSKDSTYSLSSTLTLSKADYEKHKVYACEVTHQGLSSPVTKSFNRGEC
notes: Expressed in Expi293F cells, about 99% monomer; also called enfortumab similar Ab; Enfortumab similar mAb

- Kd [9]: 0.091 nM
- Kd [10]: 812 nM
- binding result [11]: binds
- Kd [12]: 846 nM
- Kd [13]: 921 nM
B2: DRUG C (enfortumab vedotin similar antibody-drug conjugate) (antibody, human IgG1, kappa)
heavy: not shown
light: B1 light
modifications: MC-Val-Cit-PAB-MMAE linker-payload conjugated via interchain cysteines of the antibody; average drug-to-antibody ratio 3.85:1
notes: DRUG B conjugated to MC-Val-Cit-PAB-MMAE; also called enfortumab vedotin similar ADC; copies: 2 + 2

— patent publication US20240010701A1 (ALX ONCOLOGY, published 2024)
